The text below walks through data of patent US20170037117A1, “COMPOSITIONS AND METHODS FOR TREATING METABOLIC DISORDERS” (Salk Institute for Biological Studies, priority 2014, published 2017).

The assay deals with T1, human α-CGRP (Homo sapiens, UniProt P06881).
T1 construct: 1-37 (WT); purchased GenScript Corporation or Global Peptide Services
T1 sequence (P06881 83-119 limits assumed): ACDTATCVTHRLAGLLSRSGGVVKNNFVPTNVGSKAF
The assay is described as follows: Biacore affinity of G1 Fab and variants to human α-CGRP. Conditions: 37° C.; Fab fragments; screening mode except underlined values (G1 high-resolution mode). It counts as binding. As for the experimental part: Biacore assay for affinity determination. […] All Biacore assays were conducted in HBS-EP running buffer (10 mM HEPES pH 7.4, 150 mM NaCl, 3 mM EDTA, 0.005% v/v polysorbate P20). CGRP surfaces were prepared by diluting the N-biotinylated CGRP to a concentration of less than 0.001 mg/mL into HBS-EP buffer and injecting it across the SA sensor chip using variable contact times. Low capacity surfaces, corresponding to capture levels <50 response units (RU) were used for high-resolution kinetic studies, whereas high capacity surfaces (about 800 RU of captured CGRP) were used for concentration studies, screening, and solution affinity determinations. […] Samples were typically injected for 1 minute at 100 μL/min and dissociation times of at least 10 minutes were allowed. After each binding cycle, surfaces were regenerated with 25 mM NaOH in 25% v/v ethanol, which was tolerated over hundreds of cycles. […]
High-resolution analysis of binding interactions with extremely slow offrates. […] The association rate constant (kon) was determined by injecting a 2-fold titration series (in duplicate) spanning 550 nM-1 nM for 30 sec at 100 uL/min and allowing only a 30 sec dissociation phase. The dissociation rate constant (koff) was determined by injecting three concentrations (high, medium, and low) of the same titration series in duplicate for 30 sec and allowing a 2-hour dissociation phase. […]
For orientation: SPR reads the build-up and loss of mass on a sensor chip optically.

B1: M25: G1 variant: L1 R28N; HC-FW3 L99T A100V (antibody, V domains shown)
VH: EVQLVESGGGLVQPGGSLRLSCAASGFTFSNYWISWVRQAPGKGLEWVAEIRSESDASATHYAEAVKGRFTISRDNAKNSLYLQMNSLRAEDTAVYYCTVYFDYGLAIQNYWGQGTLVTVSS
VL: EIVLTQSPATLSLSPGERATLSCKASKNVTTYVSWYQQKPGQAPRLLIYGASNRYLGIPARFSGSGSGTDFTLTISSLEPEDFAVYYCSQSYNYPYTFGQGTKLEIK
On to B1, for which the “α-human koff” value amounted to 0.00014 s⁻¹.
